In patent publication US20120021995A1 (published 2012):

T1: DR4 (TRAIL-R1) on cancer cells (human, UniProt O00220 24-468)
T1 sequence: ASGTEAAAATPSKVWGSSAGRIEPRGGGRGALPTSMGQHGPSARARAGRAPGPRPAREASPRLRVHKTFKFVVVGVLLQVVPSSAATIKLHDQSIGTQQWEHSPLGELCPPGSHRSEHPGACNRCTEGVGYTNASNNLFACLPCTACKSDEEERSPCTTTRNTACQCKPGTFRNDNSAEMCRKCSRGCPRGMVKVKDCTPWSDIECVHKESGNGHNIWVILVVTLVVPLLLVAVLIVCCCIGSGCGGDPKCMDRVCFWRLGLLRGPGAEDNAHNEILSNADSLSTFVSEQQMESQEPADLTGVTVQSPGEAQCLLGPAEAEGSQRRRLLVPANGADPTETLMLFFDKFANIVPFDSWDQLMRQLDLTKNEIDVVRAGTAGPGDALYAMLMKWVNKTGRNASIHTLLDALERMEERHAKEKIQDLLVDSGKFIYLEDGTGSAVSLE

T2: recombinant human TRAIL R1 (DR4)/Fc chimera (human, UniProt O00220 24-239)
T2 construct: bought (R&D Systems); not shown: Fc of the bought chimera (R&D Systems)
T2 sequence: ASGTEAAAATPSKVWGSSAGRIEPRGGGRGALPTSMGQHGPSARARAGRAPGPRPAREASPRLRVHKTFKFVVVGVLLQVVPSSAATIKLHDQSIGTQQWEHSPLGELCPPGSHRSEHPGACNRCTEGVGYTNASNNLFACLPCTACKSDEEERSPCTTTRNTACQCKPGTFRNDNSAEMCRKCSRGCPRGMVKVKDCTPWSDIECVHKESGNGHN


Assays:
[1] = biological target: T1, DR4 (TRAIL-R1) on cancer cells; experiment: cell-based or functional assay
[2] = biological target: T2, recombinant human TRAIL R1 (DR4)/Fc …; experiment: phage ELISA on DR4/Fc

| Binder | Colo205 % killing (% of TRAIL activity) [1] [%] | H2122 % killing (% of TRAIL activity) [1] [%] | ST486 % killing (% of TRAIL activity) [1] [%] | binding result [2] |
| --- | --- | --- | --- | --- |
| 71p88P1B9 (designed binder) EPPTQKPKKIVNAKKDVVNTKMFEELKSRLDTLAQEVALLKEQQALQTVCLKGTKVHMKCFLAFTQTKTFHEASEDCISRGGTLSTPQTGSENDALYEYLRQSVGNEAEIWLGLNGWLAGSGWVDMTGARIAYKNWETEITAQPDGGGGWPWENCAVLSGAANGKWFDKRCRDQLPYICQFGIV | 7 | 3 | 34 | – |
| 71p88P1G11 (designed binder) EPPTQKPKKIVNAKKDVVNTKMFEELKSRLDTLAQEVALLKEQQALQTVCLKGTKVHMKCFLAFTQTKTFHEASEDCISRGGTLSTPQTGSENDALYEYLRQSVGNEAEIWLGLNGWMAGVGWVDMTGARIAYKNWETEITAQPDGGPGLRWENCAVLSGAANGKWFDKRCRDQLPYICQFGIV | 1 | 4 | 45 | – |
| 71p88P1B12 (designed binder) EPPTQKPKKIVNAKKDVVNTKMFEELKSRLDTLAQEVALLKEQQALQTVCLKGTKVHMKCFLAFTQTKTFHEASEDCISRGGTLSTPQTGSENDALYEYLRQSVGNEAEIWLGLNGWIEGAGWVDMTGARIAYKNWETEITAQPDGGWRSRWENCAVLSGAANGKWFDKRCRDQLPYICQFGIV | -10 | -1 | 26 | – |
| 71p88P1D9 (designed binder) EPPTQKPKKIVNAKKDVVNTKMFEELKSRLDTLAQEVALLKEQQALQTVCLKGTKVHMKCFLAFTQTKTFHEASEDCISRGGTLSTPQTGSENDALYEYLRQSVGNEAEIWLGLNGWVAGVGWVDMTGARIAYKNWETEITAQPDGGGGWRWENCAVLSGAANGKWFDKRCRDQLPYICQFGIV | -21 | -3 | 28 | – |
| 119p83P1A3 (designed binder, on phage) ALQTVCLKGTKVHMKCFLAFTQTKTFHEASEDCISRGGTLSTPQTGSENDALYEYLRQSVGNEAEIWLGLNGWLEGVGWVDMTGARIAYKNWVAKDHEQPDGGWPFSNENCAVLSGAANGKWFDKRCRDQLPYICQFGIV | – | – | – | binds |
| 119p83P1A7′ (designed binder, on phage) ALQTVCLKGTKVHMKCFLAFTQTKTFHEASEDCISRGGTLSTPQTGSENDALYEYLRQSVGNEAEIWLGLNGWLEGVGWVDMTGARIAYKNWYSWPKLQPDGGWPFSNENCAVLSGAANGKWFDKRCRDQLPYICQFGIV | – | – | – | binds |
| 119p83P1C12 (designed binder, on phage) ALQTVCLKGTKVHMKCFLAFTQTKTFHEASEDCISRGGTLSTPQTGSENDALYEYLRQSVGNEAEIWLGLNGWLEGVGWVDMTGARIAYKNWNSNVVLQPDGGWPFSNENCAVLSGAANGKWFDKRCRDQLPYICQFGIV | – | – | – | binds |
| 119p83P1G3 (designed binder, on phage) ALQTVCLKGTKVHMKCFLAFTQTKTFHEASEDCISRGGTLSTPQTGSENDALYEYLRQSVGNEAEIWLGLNGWLEGVGWVDMTGARIAYKNWYVRSEGQPDGGWPFSNENCAVLSGAANGKWFDKRCRDQLPYICQFGIV | – | – | – | binds |
| 119p83P1A12 (designed binder, on phage) ALQTVCLKGTKVHMKCFLAFTQTKTFHEASEDCISRGGTLSTPQTGSENDALYEYLRQSVGNEAEIWLGLNGWLEGVGWVDMTGARIAYKNWQPGLWRQPDGGWPFSNENCAVLSGAANGKWFDKRCRDQLPYICQFGIV | – | – | – | binds |
| 119p83P1C11 (designed binder, on phage) ALQTVCLKGTKVHMKCFLAFTQTKTFHEASEDCISRGGTLSTPQTGSENDALYEYLRQSVGNEAEIWLGLNGWLEGVGWVDMTGARIAYKNWAMHYYWQPDGGWPFSNENCAVLSGAANGKWFDKRCRDQLPYICQFGIV | – | – | – | binds |
| 119p83P1A9 (designed binder, on phage) ALQTVCLKGTKVHMKCFLAFTQTKTFHEASEDCISRGGTLSTPQTGSENDALYEYLRQSVGNEAEIWLGLNGWLEGVGWVDMTGARIAYKNWVYRPGMQPDGGWPFSNENCAVLSGAANGKWFDKRCRDQLPYICQFGIV | – | – | – | binds |
| 119p83P1G12 (designed binder, on phage) ALQTVCLKGTKVHMKCFLAFTQTKTFHEASEDCISRGGTLSTPQTGSENDALYEYLRQSVGNEAEIWLGLNGWLEGVGWVDMTGARIAYKNWGSYGPFQPDGGWPFSNENCAVLSGAANGKWFDKRCRDQLPYICQFGIV | – | – | – | binds |
| 119p83P1D11 (designed binder, on phage) ALQTVCLKGTKVHMKCFLAFTQTKTFHEASEDCISRGGTLSTPQTGSENDALYEYLRQSVGNEAEIWLGLNGWLEGVGWVDMTGARIAYKNWQVHARSQPDGGWPFSNENCAVLSGAANGKWFDKRCRDQLPYICQFGIV | – | – | – | binds |
| 119p83P1C9 (designed binder, on phage) ALQTVCLKGTKVHMKCFLAFTQTKTFHEASEDCISRGGTLSTPQTGSENDALYEYLRQSVGNEAEIWLGLNGWLEGVGWVDMTGARIAYKNWGGEVLLQPDGGWPFSNENCAVLSGAANGKWFDKRCRDQLPYICQFGIV | – | – | – | binds |
| 119p83P1D10 (designed binder, on phage) ALQTVCLKGTKVHMKCFLAFTQTKTFHEASEDCISRGGTLSTPQTGSENDALYEYLRQSVGNEAEIWLGLNGWLEGVGWVDMTGARIAYKNWGRRRNLQPDGGWPFSNENCAVLSGAANGKWFDKRCRDQLPYICQFGIV | – | – | – | binds |
| 119p83P1H3 (designed binder, on phage) ALQTVCLKGTKVHMKCFLAFTQTKTFHEASEDCISRGGTLSTPQTGSENDALYEYLRQSVGNEAEIWLGLNGWLEGVGWVDMTGARIAYKNWSEDRPGQPDGGWPFSNENCAVLSGAANGKWFDKRCRDQLPYICQFGIV | – | – | – | binds |
| 119p83P1H5 (designed binder, on phage) ALQTVCLKGTKVHMKCFLAFTQTKTFHEASEDCISRGGTLSTPQTGSENDALYEYLRQSVGNEAEIWLGLNGWLEGVGWVDMTGARIAYKNWGTGVMGQPDGGWPFSNENCAVLSGAANGKWFDKRCRDQLPYICQFGIV | – | – | – | binds |
| 119p83P1A11 (designed binder, on phage) ALQTVCLKGTKVHMKCFLAFTQTKTFHEASEDCISRGGTLSTPQTGSENDALYEYLRQSVGNEAEIWLGLNGWLEGVGWVDMTGARIAYKNWDAPVSGQPDGGWPFSNENCAVLSGAANGKWFDKRCRDQLPYICQFGIV | – | – | – | binds |
| 119p83P1F12 (designed binder, on phage) ALQTVCLKGTKVHMKCFLAFTQTKTFHEASEDCISRGGTLSTPQTGSENDALYEYLRQSVGNEAEIWLGLNGWLEGVGWVDMTGARIAYKNWFIPADRQPDGGWPFSNENCAVLSGAANGKWFDKRCRDQLPYICQFGIV | – | – | – | binds |
| 119p83P1H7 (designed binder, on phage) ALQTVCLKGTKVHMKCFLAFTQTKTFHEASEDCISRGGTLSTPQTGSENDALYEYLRQSVGNEAEIWLGLNGWLEGVGWVDMTGARIAYKNWVNHGVGQPDGGWPFSNENCAVLSGAANGKWFDKRCRDQLPYICQFGIV | – | – | – | binds |
